The text below walks through data of PMC8486872 (2021).

The term Kd denotes the equilibrium constant for the complex coming apart.

Sequences and labels used below:
B1: LD3_v3 (designed binder)
chain: QRWELALGRFLEYLSWVSTLSEQVQEELLSSQVTQELRALMDETMKELKAYKSELEEQLTPVAEETRARLSKELQAAQARLGADMEDVRGRLVQYRGEVQAMLGQSTEELRVRLASHLIALALRLIGAAFDLQKRLAVY
B2: LD3_v1 (designed binder)
chain: B1 chain with E12A, A128D
B3: LD3_v2 (designed binder)
chain: B1 chain with R124A, A128D

Numbering of substitutions follows the chain as printed.

The target in the assay is Bcl2 (UniProt P10415 1-239). The assay can be described thus: SPR. On the technique in general: Surface plasmon resonance follows binding to a sensor surface in real time, without labels.
Sequence of Bcl2 (P10415 whole entry): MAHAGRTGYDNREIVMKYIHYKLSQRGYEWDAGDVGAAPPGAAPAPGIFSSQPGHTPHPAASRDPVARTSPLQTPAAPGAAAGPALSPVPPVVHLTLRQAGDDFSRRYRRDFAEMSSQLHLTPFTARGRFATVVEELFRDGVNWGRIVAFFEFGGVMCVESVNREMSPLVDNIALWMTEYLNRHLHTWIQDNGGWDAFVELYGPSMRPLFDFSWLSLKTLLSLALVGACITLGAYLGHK
In turn, B1 had a Kd of 147 nM.
B2 yielded a Kd of 16.8 nM.
B3 had a Kd of 64.1 nM.
